{"source": "the supplement of paper PMC9112550", "about": "“Optimization of the antimicrobial peptide Bac7 by deep mutational scanning” (BMC Biology, 2022);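 also: peptides expressed intracellularly from a pBAD plasmid library in pooled LB shake-flask culture, induced with 0.3% L-arabinose, DNA abundance read by NGS, three biological replicates, DESeq2 with apeglm shrinkage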"}
{"tested_on": "Escherichia coli TOP10", "assay": "shrunken log2 fold change of peptide-encoding DNA abundance (4.5 h post-induction vs induction); higher = less antimicrobial activity (less host growth inhibition)", "conditions": "time post-induction: 4.5 h; library: site-saturation at positions 5, 18, 19, 20"}
{"sequence": "RRIRTRPPRLPRPRPRPQMTPRP", "shrunken log2 fold change": 0.0824}
{"sequence": "RRIRMRPPRLPRPRPRPGVSPRP", "shrunken log2 fold change": 0.461}
{"sequence": "RRIRYRPPRLPRPRPRPQNLPRP", "shrunken log2 fold change": -0.0535}
{"sequence": "RRIRCRPPRLPRPRPRPGETPRP", "shrunken log2 fold change": 0.238}
{"sequence": "RRIRGRPPRLPRPRPRPTHAPRP", "shrunken log2 fold change": 1.3}
{"sequence": "RRIRRRPPRLPRPRPRPHAEPRP", "shrunken log2 fold change": 0.317}
{"sequence": "RRIRIRPPRLPRPRPRPQDWPRP", "shrunken log2 fold change": -0.344}
{"sequence": "RRIRTRPPRLPRPRPRPTKQPRP", "shrunken log2 fold change": -0.0507}
{"sequence": "RRIRMRPPRLPRPRPRPFKEPRP", "shrunken log2 fold change": -0.00865}
{"sequence": "RRIRTRPPRLPRPRPRPAMMPRP", "shrunken log2 fold change": -0.109}
{"sequence": "RRIRYRPPRLPRPRPRPSWHPRP", "shrunken log2 fold change": -1.12}
{"sequence": "RRIRDRPPRLPRPRPRPYDLPRP", "shrunken log2 fold change": -0.00674}
{"sequence": "RRIRKRPPRLPRPRPRPRLFPRP", "shrunken log2 fold change": 0.104}
{"sequence": "RRIRDRPPRLPRPRPRPMHKPRP", "shrunken log2 fold change": 0.0101}
{"sequence": "RRIRNRPPRLPRPRPRPEWWPRP", "shrunken log2 fold change": 0.315}
{"sequence": "RRIRGRPPRLPRPRPRPDDDPRP", "shrunken log2 fold change": 0.0442}
{"sequence": "RRIRPRPPRLPRPRPRPISDPRP", "shrunken log2 fold change": -0.507}
{"sequence": "RRIRPRPPRLPRPRPRPLGDPRP", "shrunken log2 fold change": 0.279}
{"sequence": "RRIRMRPPRLPRPRPRPGEQPRP", "shrunken log2 fold change": 1.48}
{"sequence": "RRIRHRPPRLPRPRPRPMYPPRP", "shrunken log2 fold change": -0.304}
{"sequence": "RRIRVRPPRLPRPRPRPSVHPRP", "shrunken log2 fold change": -0.0573}
{"sequence": "RRIRLRPPRLPRPRPRPYELPRP", "shrunken log2 fold change": 0.00404}
{"sequence": "RRIRDRPPRLPRPRPRPYNQPRP", "shrunken log2 fold change": -0.135}
{"sequence": "RRIRIRPPRLPRPRPRPHYDPRP", "shrunken log2 fold change": -0.801}
{"sequence": "RRIRERPPRLPRPRPRPGVSPRP", "shrunken log2 fold change": -0.00674}
{"sequence": "RRIRFRPPRLPRPRPRPDLCPRP", "shrunken log2 fold change": -0.0489}
{"sequence": "RRIRHRPPRLPRPRPRPILDPRP", "shrunken log2 fold change": 0.0523}
{"sequence": "RRIRARPPRLPRPRPRPSQIPRP", "shrunken log2 fold change": 0.0409}
{"sequence": "RRIRRRPPRLPRPRPRPLQDPRP", "shrunken log2 fold change": 0.0495}
{"sequence": "RRIRMRPPRLPRPRPRPTTNPRP", "shrunken log2 fold change": 0.403}
{"sequence": "RRIRKRPPRLPRPRPRPKSFPRP", "shrunken log2 fold change": -0.125}
{"sequence": "RRIRLRPPRLPRPRPRPTRGPRP", "shrunken log2 fold change": 0.298}
{"sequence": "RRIRKRPPRLPRPRPRPLDNPRP", "shrunken log2 fold change": 0.0829}
{"sequence": "RRIRGRPPRLPRPRPRPEHFPRP", "shrunken log2 fold change": 0.00955}
{"sequence": "RRIRCRPPRLPRPRPRPLPRPRP", "shrunken log2 fold change": 0.612}
{"sequence": "RRIRCRPPRLPRPRPRPDYIPRP", "shrunken log2 fold change": 0.0495}
{"sequence": "RRIRPRPPRLPRPRPRPIAQPRP", "shrunken log2 fold change": 0.487}
{"sequence": "RRIRCRPPRLPRPRPRPAMLPRP", "shrunken log2 fold change": 0.0443}
{"sequence": "RRIRGRPPRLPRPRPRPGVFPRP", "shrunken log2 fold change": 0.465}
{"sequence": "RRIRFRPPRLPRPRPRPRKKPRP", "shrunken log2 fold change": 0.14}
{"sequence": "RRIRHRPPRLPRPRPRPCTYPRP", "shrunken log2 fold change": -0.634}
{"sequence": "RRIRLRPPRLPRPRPRPIESPRP", "shrunken log2 fold change": 0.033}
{"sequence": "RRIRWRPPRLPRPRPRPMQHPRP", "shrunken log2 fold change": 0.596}
{"sequence": "RRIRYRPPRLPRPRPRPQYEPRP", "shrunken log2 fold change": -0.565}
{"sequence": "RRIRGRPPRLPRPRPRPDGSPRP", "shrunken log2 fold change": 0.85}
{"sequence": "RRIRERPPRLPRPRPRPTGGPRP", "shrunken log2 fold change": 0.342}
{"sequence": "RRIRDRPPRLPRPRPRPFKAPRP", "shrunken log2 fold change": -0.334}
{"sequence": "RRIRNRPPRLPRPRPRPAEDPRP", "shrunken log2 fold change": 0.0275}
{"sequence": "RRIRQRPPRLPRPRPRPPEYPRP", "shrunken log2 fold change": -0.245}
{"sequence": "RRIRMRPPRLPRPRPRPTHVPRP", "shrunken log2 fold change": -0.00477}
{"sequence": "RRIRDRPPRLPRPRPRPQPVPRP", "shrunken log2 fold change": 0.28}
{"sequence": "RRIRKRPPRLPRPRPRPQPRPRP", "shrunken log2 fold change": 0.752}
{"sequence": "RRIRYRPPRLPRPRPRPNGYPRP", "shrunken log2 fold change": 0.122}
{"sequence": "RRIRYRPPRLPRPRPRPVGPPRP", "shrunken log2 fold change": -0.328}
{"sequence": "RRIRNRPPRLPRPRPRPRWSPRP", "shrunken log2 fold change": -0.054}
{"sequence": "RRIRTRPPRLPRPRPRPIDQPRP", "shrunken log2 fold change": -0.00192}
{"sequence": "RRIRDRPPRLPRPRPRPDWSPRP", "shrunken log2 fold change": 0.147}
{"sequence": "RRIRMRPPRLPRPRPRPEHTPRP", "shrunken log2 fold change": 2.63}
{"sequence": "RRIRVRPPRLPRPRPRPTQGPRP", "shrunken log2 fold change": 0.291}
{"sequence": "RRIRTRPPRLPRPRPRPHPRPRP", "shrunken log2 fold change": 0.467}
